# From the DeepSol protein solubility set
# Assay: soluble on expression in E. coli; label from the status in PepcDB or PDB records
row,Sequence,soluble on expression in E. coli
1,MAAKPILYSSWSSGCSSRVRTALALKKIDYEYQPVNLLNKQKEQEFHGNNPAEKVPILKINGLTLTESMAIIEYLDEIYPDPPLLPKEPELKARARAIAFHIASNIQPLQNKPIYLMLNEKEPGYGDFWCQHFISKGFKALEELLQMHSGDFCVGNQISIADICLPSIVYNAIEKYHVDMTPYPIITRISNKLAELPEFQVAHPNNQPDAPKN,not soluble
2,MGKGAMNRRDFLKVGGMSTLALTLGSTGLFSLEGQAKNSSNPTSGFGGFGPLVKDPNGILDLPKGFKYKILSRTGDRMTNGDLVPSMHDGMAAFQGPRNTTILVRNHENGTNADYPVNGKNPWSKGAAGGTTALVVGPNREVIREYVTNSGNIRNCAGGPSTWGTWLTCEETRDMGHGFVFEVNPHEPENEMSKTPIRDMGYFSHEACNVDPSTGIWYLTEDNSPSFFYRFTPHDRSQTLGSLQKGGILEAAAIDELPHNQASNFTSGQKIGIVWKKVNPERAKEDARDLGCIRFSRLEGSWFAGGAFWFDDTNAGEKNLGRIYRYFPATNTLELFYESSDHNDLEMPDNITITPWGDLWIAEDGNIGRDRMIGLTPEGNVYTFAENRLNNSEFAGPAFSPDGKTFYLNMQTPGITFAIWGPFARRNAARQVAMSHAAPPPGYGPQVSDKLADYAERHGMSPLAAAALERHGFIVLEHHHHHH,not soluble
3,SNAMSVVIYHNPKCSKSRETLALLENQGIAPQVIKYLETSPSVEELKRLYQQLGLNEVRAMMRCKEELYKELNLGDSQLSDDALFAAMAEHPKLIERPIVVCNGQARHGRPPEQVLEIL,soluble
4,SEPGETIVEAMQREVKEEAGLLCEPVTLLSVEERGASWIRFVFLARPTGGVLKTSKDADSESLQAGWYPRVSLPTPLRAHDVLHLVELGAKFCQQAMHPLILPQELPCSVVCQRLVTTFTTVQSVWVLVGTVGTPHLPITACGFTPMEQRGGIKVAILRLLQECLTLHSLAVETKGLLGLQHLGRDHVDGVCLNVLVTVAFRNPGIQDEPPKIRGENYFWWKVLEEDLQKLLLYRLQESSVIPLSR,soluble
5,MGSDKIHHHHHHMSPKAAIHNRSGSFSDRWIAYCQQRNIPYKTVDCHSSDIIEELADCSFLMWNWSQTYAEDMLIARGLIKAVESMGIRVFPNSETCWHFDDKVAQKYLMEALGVPMVKSYVFLDRARALEWARKTEYPKVFKLRGGAGSSNVFLVNDINKAERLINKAFSTGFPPVSRWNALSERWWQFKRDKTFISFFNISRGIFRALIKNPTLERLPVQRNYAYFQDFVPDNDSDIRVIAIGKRAFGIKRMVREGDFRASGSGKILYDPELIPEACIRMTFDLAKKTRSQSLVLDFIFSDGSPLVVEMSYAFASHGYLSCPGYWRNDMTWVEGSFHPEDFMVDDLIVSSVERS,not soluble
6,MGSDKIHHHHHHMLEVKKLTVCYNDFLALNEISLKIQEGALTGIFGPNGAGKSTLLKAMLNIIPHQGEVSINNEDINKKLVKIAYVEQKADIDFTFPIKVKECVSMGTYAGMKVFQRIKNAEWQKVSKALEKVDMGKYSNHQIGELSGGQFQRVLLARCLAQNADFIFLDEPFVGIDLVSERIIMDTLKELKHQGKTVLIVHHDLSKVKKYFDNIILLNRNLIAHGSVESVFNEENLKKAYGDTIFIGEGE,not soluble
7,MDFQNFVATLESFKDLKSGISGSRIKKLTTYALDHIDIESKIISLIIDYSRLCPDSHKLGSLYIIDSIGRAYLDETRSNSNSSSNKPGTCAHAINTLGEVIQELLSDAIAKSNQDHKEKIRMLLDIWDRSGLFQKSYLNAIRSKCFAAALEHHHHHH,soluble
8,MGISPDAASKLYTVKFQPDPIDKKGWSVIDFNNCCTQDGGWYLNMGWGVESLIDNNPGTQWLCRWDVKEPLPYYFVFDMGKEYTLFRFGFANPVAPAAHVWAGTSKAGYVEASIDNENWVKLKDWTSPKIGEPNVNMDVPATQARYIRFVITDTYPTYDGLRVSLGEVYAWGLEHHHHHH,soluble
9,MFDKHTHTLIAQRLDQAEKQREQIRAISLDYPEITIEDAYAVQREWVRLKIAESRTLKGHKIGLTSKAMQASSQISEPDYGALLDDMFFHDGSDIPTDRFIVPRIEVELAFVLAKPLRGPNCTLFDVYNATDYVIPALELIDARCHNIDPETQRPRKVFDTISDNAANAGVILGGRPIKPDELDLRWISALMYRNGVIEETGVAAGVLNHPANGVAWLANKLAPYDVQLETGQIILGGSFTLPVPARKGDTFHVDYGNMGSISCRFV,not soluble
10,MAHHHHHHHRSPTRVNDGVDADEVTFVNRFTVHGAPAEFESVFARTAAFFARQPGFVRHTLLRERDKDNSYVNIAVWTDHDAFRRALAQPGFLPHATALRALSTSEHGLFTARQTLPEGGDTTGSGHR,soluble
11,MGSSHHHHHHGKTIFVIVPTNEEQVAFLEALAKQDELNFDWQNPPTEPGQPVVILIPSDMVEWFLEMLKAKGIPFTVYVEEGGSENLYFQGGGGGGTCMMGLEIRPKVVSFAQEKALALRQENAASLTQHYRNVWFEQMNVMKFGSNCFTKGQLSRLFFCYPDPHWKRKNIRRRIISPGLVQEYAYWLRHGGLVYTVSDVAELEEWMVQCLDDSPLFRRLAEAELCTPEHKQVLEIVTGASEDAQRTARKGLQKHFAVHMRI,not soluble
12,MAEKEHNPGNVKPNRSWTSVLGTKITFSEGLILNIEGYYKYIFNRMYIPVSIGLDDFDIRPQFNGEGRVWGIDLMLQKLQSRYWDGWLSYSYSWARYRDPSSGNATIGFSGGTRGNDWYFPNFHRFHNLNLVINIKPAPQFNFYTRFGLASGTQLPRRTTDRPATYPVFMFDDPETPGIPKFVQRYNWPSETDEDNRTTPTLSMDIKFSFFGKNRTGKTRYEIYFALENVLSLVYRPQGNTRFNTFTGVIETGSDAASYGLPIPIPSFGFKFSY,not soluble
13,MADSTITIRGYVRDNGCSVAAESTNFTVDLMENAAKQFNNIGATTPVVPFRILLSPCGNAVSAVKVGFTGVADSHNANLLALENTVSAASGLGIQLLNEQQNQIPLNAPSSALSWTTLTPGKPNTLNFYARLMATQVPVTAGHINATATFTLEYQDNHHHHHHKQADSTITIRGYVRDN,soluble
14,MGSDKIHHHHHHMNEKTTTAQKGAPRARVSATRVRSASRTPHATTVNPADLTVHNHPLARRHYRVATAAIEGFVDLVEHCVRVLIPGALIYARPRMGKTHAIDYLALHLGRNRGDILVLRMSCEYHRTDYEGAFFSALLSAAGIRDPQPRFIADKRFALMRRINEQLQMRSGHIVVLFCDEAQRLSKHALEWLRDVHDQLAHHGVRLITFLVGQPQLMEQKAQYQLSGDEQIVARFMIEQLHFRGITGAVEAATCLASYDMTRYPEDTGSTFTAFFYPDAYAAGLRLEQSAAALWNGFVNAHKVAQLAGPIELHMDYFSRAVESVLLNGPQWDSAGLVLDSAYWERAVRESGYVAAQQTVQPEV,not soluble
15,MIFDKNFSYAFDENACEKCGGKCCTGESGNIFASKEELEVLRKHLNLESKEFAEKYLRKVGFKMSFKEVECEDGFACIFFDTQKRNCSIYDFRPKQCRTFPFWEYFKTHQKELEKECIGICYLSLEHHHHHH,not soluble
16,MKRLKNELNALVNRGVDRHLRLAVTGLSRSGKTAFITAMVNQLLNIHAGARLPLLSAVREERLLGVKRIPQRDFGIPRFTYDEGLAQLYGDPPAWPTPTRGVSEIRLALRYKSNDSLLRHFKDTSTLYLEIVDYPGEWLLDLPMLAQDYLSWSRQMTGLLNGQRGEWSAKWRMMCEGLDPLAPADENRLADIAAAWTDYLHHCKQQGLHFIQPGRFVLPGDMAGAPALQFFPWPDVDAWGESKLAQADKHTNAGMLRERFNYYCEKVVKGFYKNHFLRFDRQIVLVDCLQPLNSGPQAFNDMRLALTQLMQSFHYGQRTLFRRLFSPVIDKLLFAATKADHVTIDQHANMVSLLQQLIQDAWQNAAFEGISMDCLGLASVQATTSGIIDVNGEKIPALRGNRLSDGAPLTVYPGEVPARLPGQAFWDKQGFQFEAFRPQVMDVDKPLPHIRLDAALEFLIGDKLR,not soluble
